Reference: patent US20240002495A1 (MITSUBISHI TANABE PHARMA, published 2024)
Where no end group is shown, it is not given here.

What was measured:
[1] = biological target: T1, recombinant human IL-33 protein (residues 112 to 270) (ILC0701, ATGen Co. Ltd) (human, UniProt O95760 112-270); assay: SPR (Biacore T200), human IL-33 (ILC0701) immobilized on CM5, Calibration Free Concentration Analysis of the preserved antibody against a control-preserved sample
T1 construct: bought protein
T1 sequence: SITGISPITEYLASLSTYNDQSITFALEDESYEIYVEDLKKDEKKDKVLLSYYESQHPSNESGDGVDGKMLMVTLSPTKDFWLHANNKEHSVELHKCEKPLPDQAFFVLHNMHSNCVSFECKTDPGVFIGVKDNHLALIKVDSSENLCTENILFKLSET
Experimental: Each alkaline-purified antibody was dissolved in a citrate buffer (50 mM citric acid; 150 mM NaCl (pH: 6.3)) at a concentration of about 10 mg/mL, and was preserved at a temperature of 40° C. for four weeks, to evaluate the preservation stability of each test antibody (IgG). For evaluation of the monomer purity of each antibody after the preservation, monomer purity was measured by size exclusion chromatography analysis (SEC) and microchip capillary SDS electrophoresis (mCE-SDS), and antigen-binding activity was measured by surface plasmon resonance.
In order to confirm the presence of the antigen-binding ability after the preservation, the antigen-binding activity was measured with a surface plasmon resonance system, Biacore T200 (available from GE Healthcare). A human IL-33 protein (ILC0701, available from ATGen Co. Ltd) was immobilized onto a Sensor Chip CM5 (GE Healthcare) (the amount of immobilized protein was about 3000 to 6000 RU) with Amine Coupling Kit (GE Healthcare). Each preserved antibody solution was then diluted to 10-fold with a citric buffer (50 mM citric acid, 150 mM NaCl (pH: 6.3)), and the resulting solution was analyzed to measure the total protein concentration in the solution, using a microvolume spectrophotometer, Astragene II (Astranet Systems, Ltd.) (protein concentration: about 1 mg/mL). The antibody solution after the measurement of the total protein concentration was diluted to 1000-fold with HBS-EP buffer (10 mM HEPES, 150 mM NaCl, 3 mM EDTA, 0.05% (v/v) Surfactant P20 (at pH of 7.4)). The analyte was thereby prepared. The measurement temperature was 25° C. Each analyte was added for 36 seconds at two flow rates of 5 μL/min and 100 μL/min to obtain sensorgrams of the association phase. The sensorgrams were then analyzed by Calibration Free Concentration Analysis using a data analysis program (GE Healthcare, Biacore T200 Evaluation Software v1.0) to determine the concentration of the antibody having antigen-binding activity. As control, each test antibody after preservation at a temperature of 4° C. for four weeks was also analyzed to confirm the antigen-binding activity, to calculate the ratio of antigen-binding activity of each test antibody after the preservation at a temperature of 40° C. for four weeks.

LEDESYEIYV = biological target: T2, LEDESYEIYV (human, not fully specified (N-terminus)); assay: KinExA, alkaline-purified IgG, peptide
T2 construct: synthetic peptide
T2 peptide: LEDESYEIYV
Experimental: (§1) The mixture samples were incubated at a room temperature until the antigen-antibody reaction reached equilibrium. After the reaction reached equilibrium, the percentage of free anti-IL-33 antibody in each sample was analyzed using KinExA3200. The values of Kd were calculated by fitting the plot of percentages of anti-IL-33 antibody not bound to the human IL-33 protein (vertical axis) and concentrations of antigen (horizontal axis) to a theoretical formula, using a KinExA data analysis program (KinExA Pro Software v3.5.3, available from Sapidyne Instruments, Inc.). Beads for capturing the anti-IL-33 antibody were prepared by suspending 50 mg of Azlactone beads (Sapidyne) in 1 mL of coating solution (10 μg/mL human IL-33 protein (ILC0701, available from ATGen Co. Ltd), 50 mM sodium carbonate at pH of 9.6) and incubating the solution at a room temperature for one hour. The antibody for detection used was anti-human F(ab)′2-DyLight649 (Jackson, 309-495-006).
(§2) The anti-IL-33 monoclonal antibodies A10-1C04 and A25-3H04 bound to the epitope PEP14 as described in the Example 1. […] These peptides were synthesized, and the affinity with the alkali-purified antibodies was calculated as Kd by the KinExA experiment as in Example 9 (Table 14).

EDESYEIYV = biological target: T3, EDESYEIYV (human, not fully specified (N-terminus)); assay: KinExA, alkaline-purified IgG, peptide
T3 construct: synthetic peptide
T3 peptide: EDESYEIYV
Experimental: as §1, §2

[2] = biological target: T4, DQSITFALEDESYEIYVEDL (PEP14) (human, not fully specified); assay: KinExA, alkaline-purified IgG, peptide
T4 peptide: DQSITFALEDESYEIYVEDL
Experimental: as §1, §2

- % Active IgG (antigen binding activity after preservation at 40 C for 4 W) [1]: 99.3%
- Kd (LEDESYEIYV): 386 nM
- Kd (EDESYEIYV): 2070 nM
- Kd [2]: 9 nM
B1: A10-1C04 (IgG) (antibody, V domains shown)
VH: EVQLLESGGGLVQPGGSLRLSCAASGFTFSDYYMNWVRQAPGKGLEWVSSISRYSSYIYYADSVKGRFTISRDNSKNTLYLQMNSLRAEDTAVYYCARDIGGMDVWGQGTLVTVSS
VL: QSVLTQPPSASGTPGQRVTISCTGSSSNIGAVYDVHWYQQLPGTAPKLLIYRNNQRPSGVPDRFSGSKSGTSASLAISGLRSEDEADYYCQTYDSSRWVFGGGTKLTVL
notes: tested as neutral-purified and as alkaline-purified antibody; also called V1; IGN1
